Experimental data reported in article PMC3995681, “Structural, Kinetic and Proteomic Characterization of Acetyl Phosphate-Dependent Bacterial Protein Acetylation” (PLoS ONE, 2014).

Target: the molecule itself
Assay: crystal structure; GapA crystals from PACT G2 (0.2 M sodium bromide, 0.1 M Bis Tris propane 7.5, 20% PEG 3350), grown at 22°C, soaked with about 10 mM acP for less than 30 sec; data at 100 K

B1: glyceraldehyde-3-phosphate dehydrogenase (GapA) from E. coli (enzyme, E. coli K-12, UniProt P0A9B2 1-331, looked up)
chain: MTIKVGINGFGRIGRIVFRAAQKRSDIEIVAINDLLDADYMAYMLKYDSTHGRFDGTVEVKDGHLIVNGKKIRVTAERDPANLKWDEVGVDVVAEATGLFLTDETARKHITAGAKKVVMTGPSKDNTPMFVKGANFDKYAGQDIVSNASCTTNCLAPLAKVINDNFGIIEGLMTTVHATTATQKTVDGPSHKDWRGGRGASQNIIPSSTGAAKAVGKVLPELNGKLTGMAFRVPTPNVSVVDLTVRLEKAATYEQIKAAVKAAAEGEMKGVLGYTEDDVVSTDFNGEVCTSVFDAKAGIALNDNFVKLVSWYDNETGYSNKVLDLIAHISK
modifications: acetyl-lysine at K46, K249, K257 and K116 after the acP soak of the crystals (not in all molecules of the asymmetric unit)
notes: glyceraldehyde-3-phosphate dehydrogenase GapA, E. coli K-12, ORF of the gene from the ASKA clone; The crystals were grown from unmodified protein and acetylated by a soak with acP of under 30 sec; source: E. coli BL-21 (DE3) Magic cells, ASKA clone in pCA24N, purified
B1 was tested. Which “stoichiometry N” value did it give?
Its value is 4.
